Measurements: paper PMC10995880 (iScience, 2024)

B1: Flag-PEX3ΔN-G138E (domain or fragment, UniProt P56589 41-373, looked up)
chain: QEREAAEYIAQARRQYHFESNQRTCNMTVLSMLPTLREALMQQLNSESLTALLKNRPSNKLEIWEDLKIISFTRSTVAVYSTCMLVVLLRVQLNIIGEYIYLDNAAVGKNGTTILAPPDVQQQYLSSIQHLLGDGLTELITVIKQAVQKVLGSVSLKHSLSLLDLEQKLKEIRNLVEQHKSSSWINKDGSKPLLCHYMMPDEETPLAVQACGLSPRDITTIKLLNETRDMLESPDFSTVLNTCLNRGFSRLLDNMAEFFRPTEQDLQHGNSMNSLSSVSLPLAKIIPIVNGQIHSVCSETPSHFVQDLLTMEQVKDFAANVYEAFSTPQQLEK
B2: Flag-PEX3ΔN-M72K (domain or fragment, UniProt P56589 41-373, looked up)
chain: QEREAAEYIAQARRQYHFESNQRTCNMTVLSKLPTLREALMQQLNSESLTALLKNRPSNKLEIWEDLKIISFTRSTVAVYSTCMLVVLLRVQLNIIGGYIYLDNAAVGKNGTTILAPPDVQQQYLSSIQHLLGDGLTELITVIKQAVQKVLGSVSLKHSLSLLDLEQKLKEIRNLVEQHKSSSWINKDGSKPLLCHYMMPDEETPLAVQACGLSPRDITTIKLLNETRDMLESPDFSTVLNTCLNRGFSRLLDNMAEFFRPTEQDLQHGNSMNSLSSVSLPLAKIIPIVNGQIHSVCSETPSHFVQDLLTMEQVKDFAANVYEAFSTPQQLEK

Biological target: His6-PEX19-WT (1–299 aa), non-farnesylated (human, UniProt P40855 1-299)
Assay: pull-down; His6-PEX19 pull-down of Flag-PEX3ΔN variants at the same concentrations of PEX19 and PEX3 as in the PEX26^Bpa crosslinking experiments (400 nM)
Details: both partners purified

Sequence of His6-PEX19-WT (1–299 aa), non-farnesylated (P40855 whole entry, the tested form may be a part): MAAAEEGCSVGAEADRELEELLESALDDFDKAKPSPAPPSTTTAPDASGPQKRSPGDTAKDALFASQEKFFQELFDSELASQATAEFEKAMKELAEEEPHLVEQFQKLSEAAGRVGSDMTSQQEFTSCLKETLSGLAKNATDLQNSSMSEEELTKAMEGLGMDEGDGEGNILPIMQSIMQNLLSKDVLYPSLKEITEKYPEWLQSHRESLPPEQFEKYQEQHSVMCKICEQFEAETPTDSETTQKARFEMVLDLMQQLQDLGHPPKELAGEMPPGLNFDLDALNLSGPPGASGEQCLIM

Binder | binding result
B1 | binds
B2 | binds
